Laboratory results from paper PMC11589570, “Critical assessment of LC3/GABARAP ligands used for degrader development and ligandability of LC3/GABARAP binding pockets” (Nature Communications, 2024).

Tests used:
Experiment in all cases: FP
[1] = biological target: LC3C_(1-126) (human) (UniProt Q9BXW4)
[2] = biological target: LC3A_(1-120) (human) (UniProt Q9H492)
[3] = biological target: GABARAPL2_(1-117) (human) (UniProt P60520)
Chain of GABARAPL2_(1-117) (human) (P60520 whole entry): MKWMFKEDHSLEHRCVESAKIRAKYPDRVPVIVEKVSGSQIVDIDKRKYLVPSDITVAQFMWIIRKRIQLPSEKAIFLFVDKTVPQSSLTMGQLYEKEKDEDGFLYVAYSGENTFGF

Chain of LC3C_(1-126) (human) (Q9BXW4 1-126): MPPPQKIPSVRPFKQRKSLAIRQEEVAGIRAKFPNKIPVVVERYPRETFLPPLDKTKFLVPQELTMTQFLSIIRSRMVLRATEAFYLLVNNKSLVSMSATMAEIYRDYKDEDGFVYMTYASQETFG

Ki [1]: 84.3 µM
Ki [2]: 179 µM
Ki [3]: 26.2 µM
Substance: PCM1-LIR
